Assay results reported in US20240199762A1 (PHILOGEN S P A, published 2024).

Target: T1, human FAP expressed on transduced cells (SKRC52-hFAP, HT-1080-hFAP) (human, UniProt Q12884 1-760)
T1 construct: whole, on cells; Also the target in SKRC52-hFAP tumor cryosections and in tumors of tumor-bearing mice; also called cell-expressed human FAP
T1 sequence (looked up): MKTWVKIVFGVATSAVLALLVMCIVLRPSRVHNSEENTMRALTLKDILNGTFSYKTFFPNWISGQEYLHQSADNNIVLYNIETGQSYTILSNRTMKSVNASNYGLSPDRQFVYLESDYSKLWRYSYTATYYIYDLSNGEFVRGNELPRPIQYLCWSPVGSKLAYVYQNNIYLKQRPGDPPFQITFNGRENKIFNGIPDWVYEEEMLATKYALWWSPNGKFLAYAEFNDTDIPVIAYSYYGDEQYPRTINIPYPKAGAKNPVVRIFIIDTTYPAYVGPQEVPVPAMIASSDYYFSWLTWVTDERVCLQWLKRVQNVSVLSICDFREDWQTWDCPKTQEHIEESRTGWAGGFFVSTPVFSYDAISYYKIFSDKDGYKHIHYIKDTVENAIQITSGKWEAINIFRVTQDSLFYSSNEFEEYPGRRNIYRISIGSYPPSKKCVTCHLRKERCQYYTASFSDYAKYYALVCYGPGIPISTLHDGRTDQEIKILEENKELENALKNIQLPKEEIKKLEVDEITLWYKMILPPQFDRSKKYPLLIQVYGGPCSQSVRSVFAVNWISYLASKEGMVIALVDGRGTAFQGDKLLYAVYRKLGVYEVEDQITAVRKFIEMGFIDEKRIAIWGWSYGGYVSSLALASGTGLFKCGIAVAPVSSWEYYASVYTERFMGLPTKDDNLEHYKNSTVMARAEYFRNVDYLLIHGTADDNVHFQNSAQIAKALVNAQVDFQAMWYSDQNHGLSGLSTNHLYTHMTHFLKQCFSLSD
Assay: immunofluorescence on SKRC52-hFAP tumor cryosections, FITC conjugate at 10 ug/mL
Method: Immunofluorescence experiments were performed with 7NP2 and KSF (negative control), both in IgG1 format on cryosections of renal cell carcinoma SKRC52-hFAP tumor tissue slides, which were transduced to express human FAP. The 7NP2 and KSF IgG1 molecules were conjugated to FITC to allow detection. Cryostat sections (10 μm) were stained using the 7NP2 and KSF IgG1 conjugates at a final concentration of 10 μg/mL and detected with rabbit anti-FITC and goat anti-rabbit AlexaFluor488 antibody. Slides were mounted with fluorescent mounting medium and analyzed with a microscope (FIG. 5).

binding result: binds
B1: anti-FAP antibody 7NP2 in IgG1 format (antibody, V domains shown)
VH: EVQLLESGGGLVQPGGSLRLSCAASGFTFSSYAMSWVRQAPGKGLEWVSAIGSVGGPTYYADSVKGRFTISRDNSKNTLYLQMNSLRAEDTAVYYCAKRLAWFDYWGQGTLVTVSS
VL: EIVLTQSPGTLSLSPGERATLSCRASQSVSSSYLAWYQQKPGQAPRLLIYGASSRATGIPDRFSGSGSGTDFTLTISRLEPEDFAVYYCQQSGKGPLTFGQGTKVEIKR
notes: also called 7NP2 IgG1; 7NP2(IgG1)
